Results on 26 substances are retold here after the array DNA melting data of Ke et al..

This data set in a line: melting temperature; melt of duplexes. The conditions noted are these: sodium 0.0675 M; strand 1 µM.
Take “CGACGTGCGGGATGTGCTG+CAGCACATGCCGCACGTCG ((((((((((.((((((((+)))))))).))))))))))”: the Tm (usually the temperature at the midpoint of the melting transition) came to 63.7 °C.
Turning to “CGACGTGCTCAATGTGCTG+CAGCACATGAAGCACGTCG (((((((((..((((((((+))))))))..)))))))))”, the midpoint of thermal melting (Tm) is 53.6 °C.
With “CGACGTGCAGAATGTGCTG+CAGCACATCGAGCACGTCG ((((((((...((((((((+))))))))...))))))))”, the Tm is 50.3 °C.
Regarding “CGACGTGCTGTATGTGCTG+CAGCACATGGTGCACGTCG ((((((((...((((((((+))))))))...))))))))”, the Tm worked out at 47.2 °C.
“CGACGTGCGAAATGTGCTG+CAGCACATCCAGCACGTCG ((((((((...((((((((+))))))))...))))))))”: the Tm worked out at 50.8 °C.
In the case of “CGACGTGCCCGATGTGCTG+CAGCACATTGGGCACGTCG ((((((((((.((((((((+)))))))).))))))))))”, the Tm turned out to be 62.4 °C.
As to “CGACGTGCAACATGTGCTG+CAGCACATTAGGCACGTCG ((((((((...((((((((+))))))))...))))))))”, the Tm came to 48.9 °C.
“CGACGTGCTCGATGTGCTG+CAGCACATAATGCACGTCG ((((((((...((((((((+))))))))...))))))))”: the Tm is 49.7 °C.
For the substance “CGACGTGCTCTATGTGCTG+CAGCACATCTGGCACGTCG ((((((((...((((((((+))))))))...))))))))”, the Tm was 49.5 °C.
As to “CGACGTGCAGTATGTGCTG+CAGCACATCTCGCACGTCG ((((((((...((((((((+))))))))...))))))))”, the Tm was determined as 50.1 °C.
The figure for “CGACGTGCCCCATGTGCTG+CAGCACATATTGCACGTCG ((((((((...((((((((+))))))))...))))))))” is 46.1 °C.
The figure for “CGACGTGCTGTATGTGCTG+CAGCACATCTGGCACGTCG ((((((((...((((((((+))))))))...))))))))” is 50.9 °C; for “CGACGTGCTCGATGTGCTG+CAGCACATTCTGCACGTCG ((((((((...((((((((+))))))))...))))))))” it is 49.4 °C.
Regarding “CGACGTGCATAATGTGCTG+CAGCACATAGTGCACGTCG (((((((((..((((((((+))))))))..)))))))))”, the Tm came to 48.7 °C.
With “CGACGTGCAGCATGTGCTG+CAGCACATATGGCACGTCG ((((((((...((((((((+))))))))...))))))))”, the Tm amounted to 46.7 °C.
Regarding “CGACGTGCTGAATGTGCTG+CAGCACATCTTGCACGTCG ((((((((...((((((((+))))))))...))))))))”, the Tm worked out at 50.5 °C.
With “CGACGTGCAGGATGTGCTG+CAGCACATAGAGCACGTCG ((((((((...((((((((+))))))))...))))))))”, the melting temperature (Tm) came out at 49.4 °C.
As to “CGACGTGCTCAATGTGCTG+CAGCACATAAAGCACGTCG (((((((((..((((((((+))))))))..)))))))))”, the Tm is 52.1 °C.
Regarding “CGACGTGCTTAATGTGCTG+CAGCACATTCAGCACGTCG (((((((((.(((((((((+))))))))).)))))))))”, the Tm amounted to 55.5 °C.
With “CGACGTGCAATATGTGCTG+CAGCACATGAAGCACGTCG ((((((((...((((((((+))))))))...))))))))”, the Tm came to 52.3 °C.
The figure for “CGACGTGCGAGATGTGCTG+CAGCACATATAGCACGTCG ((((((((.(.((((((((+)))))))).).))))))))” is 54.6 °C; for “CGACGTGCTAAATGTGCTG+CAGCACATGATGCACGTCG ((((((((...((((((((+))))))))...))))))))” it is 53.2 °C.
For “CGACGTGCACGATGTGCTG+CAGCACATTCCGCACGTCG ((((((((...((((((((+))))))))...))))))))”, the Tm came to 44.5 °C.
Consider “CGACGTGCTCTATGTGCTG+CAGCACATACGGCACGTCG ((((((((..(((((((((+)))))))))..))))))))”, for which the melting temperature (Tm) amounted to 49.7 °C.
“CGACGTGCCTTATGTGCTG+CAGCACATGCCGCACGTCG ((((((((...((((((((+))))))))...))))))))”: the Tm worked out at 46.9 °C.
Turning to “CGACGTGCATTATGTGCTG+CAGCACATAGGGCACGTCG ((((((((..(((((((((+)))))))))..))))))))”, the Tm was found to be 52 °C.
